From article doi:10.1101/2022.11.28.518222 come the findings set out here.

In the data set the target is IRF6 (human, UniProt O14896 1-467). Briefly: EMSA.

B1: IRF6 motif trimer EMSA probe (dsDNA)
DNA 1: TGGTTTCGGTTGACTTGGTTTCGGTTGACTTGGTTTCGGTTGA
DNA 2: TCAACCGAAACCAAGTCAACCGAAACCAAGTCAACCGAAACCA
As for B1, the binding result was “binds”.
